# Experimental data: patent US20240261333A1 (published 2024)
# B1: N-terminal FLAG tagged B3GNT2 (enzyme, human, UniProt Q9NY97 1-397, looked up)
# chain: MSVGRRRIKLLGILMMANVFIYFIMEVSKSSSQEKNGKGEVIIPKEKFWKISTPPEAYWNREQEKLNRQYNPILSMLTNQTGEAGRLSNISHLNYCEPDLRVTSVVTGFNNLPDRFKDFLLYLRCRNYSLLIDQPDKCAKKPFLLLAIKSLTPHFARRQAIRESWGQESNAGNQTVVRVFLLGQTPPEDNHPDLSDMLKFESEKHQDILMWNYRDTFFNLSLKEVLFLRWVSTSCPDTEFVFKGDDDVFVNTHHILNYLNSLSKTKAKDLFIGDVIHNAGPHRDKKLKYYIPEVVYSGLYPPYAGGGGFLYSGHLALRLYHITDQVHLYPIDDVYTGMCLQKLGLVPEKHKGFRTFDIEEKNKNNICSYVDLMLVHSRKPQEMIDIWSQLQSAHLKC
# notes: Bait of the co-IP; pulled down with mouse anti-FLAG (Millipore Sigma F3165) from cell lysate; also called N-FLAG B3GNT2; N-term FLAG; not shown: N-terminal FLAG tag
# How the values were obtained:
# RRP12 = molecular target: T1, RRP12 (human, UniProt Q5JTH9-3 1-1236, limits assumed); assay: co-IP with anti-FLAG, mass spectrometry; lysate of cells with N-FLAG B3GNT2
# T1 construct: also called NP_001138586.1 (+4)
# T1 sequence (looked up): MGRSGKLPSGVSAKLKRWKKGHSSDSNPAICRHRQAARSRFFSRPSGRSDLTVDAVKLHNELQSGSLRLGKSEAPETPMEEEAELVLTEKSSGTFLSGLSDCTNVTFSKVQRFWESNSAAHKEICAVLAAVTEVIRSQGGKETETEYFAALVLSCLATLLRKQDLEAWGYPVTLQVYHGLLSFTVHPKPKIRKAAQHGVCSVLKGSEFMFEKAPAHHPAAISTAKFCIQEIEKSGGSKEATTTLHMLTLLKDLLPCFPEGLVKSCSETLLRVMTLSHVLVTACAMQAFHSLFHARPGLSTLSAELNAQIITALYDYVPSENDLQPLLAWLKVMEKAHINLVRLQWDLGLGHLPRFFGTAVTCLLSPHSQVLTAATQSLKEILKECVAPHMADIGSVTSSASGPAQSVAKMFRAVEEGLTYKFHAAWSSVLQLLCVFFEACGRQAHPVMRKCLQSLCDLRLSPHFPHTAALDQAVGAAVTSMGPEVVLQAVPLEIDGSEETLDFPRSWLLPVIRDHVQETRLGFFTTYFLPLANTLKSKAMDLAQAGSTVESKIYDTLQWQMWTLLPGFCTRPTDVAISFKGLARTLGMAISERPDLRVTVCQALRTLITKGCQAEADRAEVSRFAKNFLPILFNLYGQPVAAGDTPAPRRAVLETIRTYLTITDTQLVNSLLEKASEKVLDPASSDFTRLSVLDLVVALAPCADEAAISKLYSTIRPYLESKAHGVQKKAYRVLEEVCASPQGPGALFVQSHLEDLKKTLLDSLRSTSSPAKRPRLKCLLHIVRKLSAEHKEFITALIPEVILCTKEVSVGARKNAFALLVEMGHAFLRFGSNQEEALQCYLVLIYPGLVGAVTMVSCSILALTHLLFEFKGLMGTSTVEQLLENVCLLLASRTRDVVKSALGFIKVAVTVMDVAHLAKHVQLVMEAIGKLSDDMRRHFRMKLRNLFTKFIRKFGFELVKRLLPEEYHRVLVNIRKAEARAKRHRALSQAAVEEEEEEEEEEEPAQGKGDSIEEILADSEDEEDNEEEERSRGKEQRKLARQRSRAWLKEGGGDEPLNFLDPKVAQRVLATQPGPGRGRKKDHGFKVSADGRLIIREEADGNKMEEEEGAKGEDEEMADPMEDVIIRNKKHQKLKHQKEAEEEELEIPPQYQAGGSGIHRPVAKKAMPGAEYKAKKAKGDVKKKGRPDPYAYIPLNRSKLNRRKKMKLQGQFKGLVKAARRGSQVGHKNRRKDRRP
# Protocol: (§1) Cells were plated in 10-cm cell culture dishes and grown to 60-80% confluency. For each condition, two biological replicates were harvested for co-IP. Cells were washed with PBS and 4 mL of lysis buffer (20 mM HEPES, 1% Triton X-100, 150 mM NaCl, 1 mM EDTA, and 10% glycerol) containing protease inhibitor cocktail was added. Cells were scraped and lysate was incubated at 4° C. under rotary agitation for 1 h. Lysate was centrifuged at 14,000×g for 10 min at 4° C. Supernatant was transferred to a new tube and an aliquot was taken as the input. […] For Western blots, 10 μg/mL Chicken Anti-FLAG (Aves labs ET-DY100) and IgY control (R&D Systems AB-101-C) antibodies were biotinylated (Thermo Fisher Scientific 90407) and added to the respective conditions. Lysates with antibodies were incubated at 4° C. under rotary agitation overnight. For each mL of lysate, 50 μL of Pierce Protein A/G Magnetic Beads (Mass spectrometry; Thermo Fisher Scientific 88803) or Pierce Streptavidin Magnetic Beads (Western blot; Thermo Fisher Scientific 88817) was washed twice with lysis buffer. Lysates with antibodies were added to the beads and incubated at 4° C. under rotary agitation for 4 h. Beads were washed with lysis buffer 3 times and resuspended in lysis buffer for storage.
# (§2) Magnetic beads were resuspended in 100 mM Tris pH 7.8, reduced, alkylated and digested with trypsin at 37° ° C. overnight. This solution was subjected to solid phase extraction to concentrate the peptides and remove unwanted reagents followed by injection onto a Shimadzu HPLC with fraction collector. Eight fractions were collected and after concentration were injected on a Waters NanoAcquity HPLC equipped with a self-packed Aeris 3 μm C18 analytical column 0.075 mm by 20 cm, (Phenomenex). Peptides were eluted using standard reverse-phase gradients. The effluent from the column was analyzed using a Thermo Orbitrap Elite mass spectrometer (nanospray configuration) operated in a data dependent manner for 54 minutes. The resulting fragmentation spectra were correlated against the known database using Proteome Discover 1.4 (Thermo Fisher Scientific).
# CCT7 = molecular target: T2, CCT7 (human, UniProt Q99832-3 1-499, limits assumed); assay: as above
# T2 construct: also called NP_001159757.1 (+1)
# T2 sequence (looked up): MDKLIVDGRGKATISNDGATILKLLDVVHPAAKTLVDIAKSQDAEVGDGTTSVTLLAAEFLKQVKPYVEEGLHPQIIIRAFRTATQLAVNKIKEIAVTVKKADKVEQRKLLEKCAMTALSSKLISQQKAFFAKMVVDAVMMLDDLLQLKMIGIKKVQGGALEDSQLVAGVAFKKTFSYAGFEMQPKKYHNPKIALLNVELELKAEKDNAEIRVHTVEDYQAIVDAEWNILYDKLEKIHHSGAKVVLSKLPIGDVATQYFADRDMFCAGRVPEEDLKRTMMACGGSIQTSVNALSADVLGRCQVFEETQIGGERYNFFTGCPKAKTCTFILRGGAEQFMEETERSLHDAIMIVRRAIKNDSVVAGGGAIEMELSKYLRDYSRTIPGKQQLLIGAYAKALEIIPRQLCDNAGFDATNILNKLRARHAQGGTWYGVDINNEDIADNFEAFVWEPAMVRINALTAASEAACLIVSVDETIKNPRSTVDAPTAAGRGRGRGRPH
# Protocol: as §1, §2
binder,measurement,setting,value
B1,co-IP mass spectrometry count,RRP12,0
same,co-IP mass spectrometry count,CCT7,0
